These results are taken from article PMC8166883.

The Kd is the free concentration of one partner at which half of the binding sites on the other are occupied at equilibrium, for simple one-to-one binding. A word on the koff: it is the first-order rate constant of dissociation. Read a low koff as a long-lived complex.

Assay [1] has as its target FLAG-tagged human tumor necrosis factor α (FLAG-hTNFα) (human) (UniProt P01375). As to the kind of experiment: SPR. Background: Surface plasmon resonance follows binding to a sensor surface in real time, without labels.
Assay [2] concerns the target FLAG-tagged human vascular endothelial growth factor-A (FLAG-hVEGF-A) (human) (UniProt P15692). As to the kind of experiment: SPR.

Sequence of FLAG-tagged human vascular endothelial growth factor-A (FLAG-hVEGF-A) (human) (P15692 other isoform, or with tags, fused parts or gaps): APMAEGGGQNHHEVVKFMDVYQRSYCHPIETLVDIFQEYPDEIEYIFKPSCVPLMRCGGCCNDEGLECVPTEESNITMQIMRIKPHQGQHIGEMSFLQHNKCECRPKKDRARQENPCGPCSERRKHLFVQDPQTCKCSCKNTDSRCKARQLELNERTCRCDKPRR
Sequence of FLAG-tagged human tumor necrosis factor α (FLAG-hTNFα) (human) (P01375 whole entry): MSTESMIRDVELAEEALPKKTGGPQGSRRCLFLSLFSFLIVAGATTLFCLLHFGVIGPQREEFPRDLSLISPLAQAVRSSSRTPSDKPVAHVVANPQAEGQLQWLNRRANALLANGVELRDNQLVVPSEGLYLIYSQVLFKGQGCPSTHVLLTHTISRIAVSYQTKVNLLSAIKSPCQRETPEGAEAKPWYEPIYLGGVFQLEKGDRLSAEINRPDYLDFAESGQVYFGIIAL

Turning to adalimumab, in assay [1], the Kd came to 410 pM and the off-rate (koff) came out at 0.00036 s⁻¹.

In assay [2], bevacizumab showed a Kd of 341 pM and a koff of 0.000105 s⁻¹.
